Measured values reported in patent publication US10500249B2, “Compositions and methods for preventing or treating diseases, conditions, or processes characterized by aberrant fibroblast proliferation and extracellular matrix deposition” (MOERAE MATRIX, INC., priority 2014, dated 2019).

Legend:
Test in all cases: Kinase Profiling Assay
Type in all cases: biochemical
Conditions in all cases: 100 μM
GSK3β (h) = biological target: T1, GSK3β (h) (Homo sapiens, UniProt P49841)
T1 construct: purchased Millipore
T1 sequence (P49841 whole entry): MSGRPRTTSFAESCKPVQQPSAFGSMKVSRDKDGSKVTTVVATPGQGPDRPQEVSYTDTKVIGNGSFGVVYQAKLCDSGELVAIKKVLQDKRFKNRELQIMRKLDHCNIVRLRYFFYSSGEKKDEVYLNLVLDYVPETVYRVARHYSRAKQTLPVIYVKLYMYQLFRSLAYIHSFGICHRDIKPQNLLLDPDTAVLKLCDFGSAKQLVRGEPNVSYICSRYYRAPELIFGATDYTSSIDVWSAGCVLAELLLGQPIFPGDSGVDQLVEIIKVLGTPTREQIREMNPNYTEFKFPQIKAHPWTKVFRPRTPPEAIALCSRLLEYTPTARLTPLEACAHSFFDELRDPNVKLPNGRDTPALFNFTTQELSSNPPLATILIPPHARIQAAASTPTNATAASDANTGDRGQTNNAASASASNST
Description: (§1) Every kinase activity measurement was conducted in duplicate.
(§2) Specifically, in these assays, a positively charged substrate is phosphorylated with a radiolabeled phosphate group from an ATP if the kinase is not inhibited by an inhibitor peptide. The positively charged substrate then is attracted to a negatively charged filter membrane, quantified with a scintillation counter, and compared to a 100% activity control.
(§3) In addition to determining the IC50 of the compound, the specificity of MK2 inhibitory peptides was assessed by examining activities of all 266 human kinases available for testing in the Millipore kinase profiling service (Table 1).

Met(Y1248C) (h) = Met(Y1248C) (h) (Homo sapiens, UniProt P08581, Y1230C)
Description: as §1, §2, §3

FAK (h) = FAK (h) (Homo sapiens, UniProt Q05397)
Chain of FAK (h) (Q05397 whole entry): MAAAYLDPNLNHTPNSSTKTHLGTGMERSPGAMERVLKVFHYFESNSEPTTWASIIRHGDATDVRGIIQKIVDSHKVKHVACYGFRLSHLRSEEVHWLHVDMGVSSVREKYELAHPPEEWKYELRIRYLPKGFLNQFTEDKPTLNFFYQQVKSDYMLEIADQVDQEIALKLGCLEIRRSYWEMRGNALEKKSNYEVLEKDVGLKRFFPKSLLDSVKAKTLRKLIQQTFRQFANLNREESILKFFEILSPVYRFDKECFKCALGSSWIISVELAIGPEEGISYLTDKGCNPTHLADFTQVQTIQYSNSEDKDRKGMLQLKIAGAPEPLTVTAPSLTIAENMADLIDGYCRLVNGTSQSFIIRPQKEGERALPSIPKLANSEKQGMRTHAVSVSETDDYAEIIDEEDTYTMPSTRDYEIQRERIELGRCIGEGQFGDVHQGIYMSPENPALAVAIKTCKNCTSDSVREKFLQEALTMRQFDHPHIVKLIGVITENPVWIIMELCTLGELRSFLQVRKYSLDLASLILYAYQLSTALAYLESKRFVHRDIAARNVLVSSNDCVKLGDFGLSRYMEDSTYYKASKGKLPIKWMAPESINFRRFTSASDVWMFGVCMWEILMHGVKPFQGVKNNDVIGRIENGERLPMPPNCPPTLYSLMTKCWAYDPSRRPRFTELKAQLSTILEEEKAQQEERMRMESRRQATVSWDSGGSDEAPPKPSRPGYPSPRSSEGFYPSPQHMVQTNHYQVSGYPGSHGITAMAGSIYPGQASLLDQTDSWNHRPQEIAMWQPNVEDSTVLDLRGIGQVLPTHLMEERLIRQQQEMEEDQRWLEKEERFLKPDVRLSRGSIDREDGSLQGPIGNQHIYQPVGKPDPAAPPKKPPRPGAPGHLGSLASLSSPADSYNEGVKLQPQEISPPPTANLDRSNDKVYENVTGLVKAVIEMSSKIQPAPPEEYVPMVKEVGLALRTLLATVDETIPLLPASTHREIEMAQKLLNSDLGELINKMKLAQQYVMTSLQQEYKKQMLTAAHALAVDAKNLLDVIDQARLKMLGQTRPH
Description: as §1, §2, §3

PhKγ2 (h) = biological target: T2, PhKγ2 (h) (Homo sapiens, UniProt P15735)
T2 construct: purchased Millipore
T2 sequence (P15735 1-406): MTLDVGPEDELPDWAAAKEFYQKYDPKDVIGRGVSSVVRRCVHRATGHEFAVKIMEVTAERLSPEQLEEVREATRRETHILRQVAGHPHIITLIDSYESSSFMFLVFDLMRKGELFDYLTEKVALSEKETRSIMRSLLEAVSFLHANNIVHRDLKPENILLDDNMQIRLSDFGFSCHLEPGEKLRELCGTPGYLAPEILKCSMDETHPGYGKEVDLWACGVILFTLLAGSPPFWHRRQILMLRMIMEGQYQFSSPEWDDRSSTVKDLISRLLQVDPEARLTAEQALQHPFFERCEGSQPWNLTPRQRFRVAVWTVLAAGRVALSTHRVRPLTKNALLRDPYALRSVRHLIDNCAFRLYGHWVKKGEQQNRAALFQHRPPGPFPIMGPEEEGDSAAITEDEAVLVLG
Description: as §1, §2, §3

SRPK1 (h) = SRPK1 (h) (Homo sapiens, UniProt Q96SB4)
Description: as §1, §2, §3

ALK4 (h) = biological target: T3, ALK4 (h) (Homo sapiens, UniProt P36896)
T3 sequence (P36896 24-505): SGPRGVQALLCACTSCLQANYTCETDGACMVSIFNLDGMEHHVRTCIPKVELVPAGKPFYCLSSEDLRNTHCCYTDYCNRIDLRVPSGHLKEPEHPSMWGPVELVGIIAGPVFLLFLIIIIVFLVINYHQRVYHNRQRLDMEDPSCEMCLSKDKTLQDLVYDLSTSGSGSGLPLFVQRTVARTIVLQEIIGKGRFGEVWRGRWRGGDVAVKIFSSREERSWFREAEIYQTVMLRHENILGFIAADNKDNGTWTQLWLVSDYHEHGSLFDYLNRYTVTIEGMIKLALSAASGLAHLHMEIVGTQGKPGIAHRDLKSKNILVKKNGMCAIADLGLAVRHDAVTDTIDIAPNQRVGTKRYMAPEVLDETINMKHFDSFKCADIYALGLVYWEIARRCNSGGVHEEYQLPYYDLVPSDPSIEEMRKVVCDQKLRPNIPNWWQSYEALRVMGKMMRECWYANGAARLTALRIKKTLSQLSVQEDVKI
Description: as §1, §2, §3

Ron (h) = Ron (h) (Homo sapiens, UniProt Q04912)
Description: as §1, §2, §3

Lck (h) activated = Lck (h) activated (Homo sapiens, UniProt P06239)
Chain of Lck (h) activated (P06239 whole entry): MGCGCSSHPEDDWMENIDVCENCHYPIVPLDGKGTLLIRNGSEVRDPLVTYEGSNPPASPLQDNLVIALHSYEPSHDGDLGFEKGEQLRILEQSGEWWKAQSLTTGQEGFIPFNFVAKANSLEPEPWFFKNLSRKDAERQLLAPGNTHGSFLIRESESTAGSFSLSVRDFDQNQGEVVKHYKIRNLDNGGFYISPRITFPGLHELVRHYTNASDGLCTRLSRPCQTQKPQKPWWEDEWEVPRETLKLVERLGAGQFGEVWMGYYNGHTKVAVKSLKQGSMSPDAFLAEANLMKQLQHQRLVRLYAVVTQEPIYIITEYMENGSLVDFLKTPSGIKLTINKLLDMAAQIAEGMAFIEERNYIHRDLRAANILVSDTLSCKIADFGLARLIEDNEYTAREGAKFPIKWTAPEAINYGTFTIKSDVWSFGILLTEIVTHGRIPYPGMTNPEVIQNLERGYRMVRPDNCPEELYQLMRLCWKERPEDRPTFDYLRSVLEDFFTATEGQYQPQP
Description: as §1, §2, §3

IRAK1 (h) = biological target: T4, IRAK1 (h) (Homo sapiens, UniProt P51617)
T4 construct: purchased Millipore
T4 sequence (P51617 whole entry): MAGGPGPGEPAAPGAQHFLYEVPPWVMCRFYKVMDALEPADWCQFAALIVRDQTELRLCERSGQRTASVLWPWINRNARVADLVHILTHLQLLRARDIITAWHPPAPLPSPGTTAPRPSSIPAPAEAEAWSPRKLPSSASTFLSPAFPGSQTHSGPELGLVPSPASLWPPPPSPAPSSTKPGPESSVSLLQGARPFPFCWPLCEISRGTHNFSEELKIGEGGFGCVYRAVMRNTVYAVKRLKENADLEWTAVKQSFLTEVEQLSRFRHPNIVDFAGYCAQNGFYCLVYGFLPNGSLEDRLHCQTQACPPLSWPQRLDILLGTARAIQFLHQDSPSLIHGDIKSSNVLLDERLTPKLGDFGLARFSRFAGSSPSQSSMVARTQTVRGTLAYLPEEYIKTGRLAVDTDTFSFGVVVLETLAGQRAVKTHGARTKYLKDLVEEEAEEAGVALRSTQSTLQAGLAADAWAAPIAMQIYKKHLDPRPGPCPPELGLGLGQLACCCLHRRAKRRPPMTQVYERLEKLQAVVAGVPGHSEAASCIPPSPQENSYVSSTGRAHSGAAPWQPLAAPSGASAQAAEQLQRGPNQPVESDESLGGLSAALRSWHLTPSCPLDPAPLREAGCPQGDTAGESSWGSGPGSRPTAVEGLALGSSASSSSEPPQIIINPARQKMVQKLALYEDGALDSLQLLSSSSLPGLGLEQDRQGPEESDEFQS
Description: as §1, §2, §3

SAPK2a(T106M) (h) = SAPK2a(T106M) (h) (Homo sapiens, UniProt Q16539, T106M)
Chain of SAPK2a(T106M) (h) (Q16539 whole entry T106M): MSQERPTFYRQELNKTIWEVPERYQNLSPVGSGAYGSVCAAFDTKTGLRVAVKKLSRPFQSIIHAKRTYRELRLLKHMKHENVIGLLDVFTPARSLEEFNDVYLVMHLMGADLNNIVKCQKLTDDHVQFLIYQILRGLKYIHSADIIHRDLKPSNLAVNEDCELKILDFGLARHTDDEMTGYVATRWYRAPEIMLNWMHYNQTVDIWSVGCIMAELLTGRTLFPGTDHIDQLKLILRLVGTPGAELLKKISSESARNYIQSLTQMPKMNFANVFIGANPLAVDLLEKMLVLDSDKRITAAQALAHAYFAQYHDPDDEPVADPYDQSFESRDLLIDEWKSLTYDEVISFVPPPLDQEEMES
Description: as §1, §2, §3

CDK1/cyclinB (h) = biological target: T5, CDK1/cyclinB (h) (Homo sapiens, UniProt P06493)
T5 construct: purchased Millipore
T5 sequence (P06493 whole entry): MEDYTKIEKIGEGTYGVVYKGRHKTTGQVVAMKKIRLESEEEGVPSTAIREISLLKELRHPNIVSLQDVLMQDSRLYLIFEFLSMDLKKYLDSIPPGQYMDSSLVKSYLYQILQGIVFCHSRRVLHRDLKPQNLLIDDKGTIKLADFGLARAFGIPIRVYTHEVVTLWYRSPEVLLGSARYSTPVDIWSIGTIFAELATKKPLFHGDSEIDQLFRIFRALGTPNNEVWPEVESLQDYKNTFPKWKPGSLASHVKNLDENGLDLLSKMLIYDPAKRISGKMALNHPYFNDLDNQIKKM
T5 sequence (P14635 whole entry partner): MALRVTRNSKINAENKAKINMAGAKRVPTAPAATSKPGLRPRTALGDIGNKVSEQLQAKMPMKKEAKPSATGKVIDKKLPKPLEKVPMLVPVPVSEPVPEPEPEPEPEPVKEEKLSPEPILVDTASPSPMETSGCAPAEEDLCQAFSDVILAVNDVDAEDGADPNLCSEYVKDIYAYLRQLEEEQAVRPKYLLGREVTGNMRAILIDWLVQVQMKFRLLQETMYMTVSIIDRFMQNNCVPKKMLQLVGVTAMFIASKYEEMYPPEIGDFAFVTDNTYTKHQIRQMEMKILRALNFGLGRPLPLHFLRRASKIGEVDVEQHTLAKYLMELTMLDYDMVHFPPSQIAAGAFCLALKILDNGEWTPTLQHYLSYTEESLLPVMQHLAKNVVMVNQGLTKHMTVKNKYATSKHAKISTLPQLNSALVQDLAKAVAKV
Description: as §1, §2, §3

Abl (h) = Abl (h) (Homo sapiens, UniProt P00519)
Chain of Abl (h) (P00519 whole entry): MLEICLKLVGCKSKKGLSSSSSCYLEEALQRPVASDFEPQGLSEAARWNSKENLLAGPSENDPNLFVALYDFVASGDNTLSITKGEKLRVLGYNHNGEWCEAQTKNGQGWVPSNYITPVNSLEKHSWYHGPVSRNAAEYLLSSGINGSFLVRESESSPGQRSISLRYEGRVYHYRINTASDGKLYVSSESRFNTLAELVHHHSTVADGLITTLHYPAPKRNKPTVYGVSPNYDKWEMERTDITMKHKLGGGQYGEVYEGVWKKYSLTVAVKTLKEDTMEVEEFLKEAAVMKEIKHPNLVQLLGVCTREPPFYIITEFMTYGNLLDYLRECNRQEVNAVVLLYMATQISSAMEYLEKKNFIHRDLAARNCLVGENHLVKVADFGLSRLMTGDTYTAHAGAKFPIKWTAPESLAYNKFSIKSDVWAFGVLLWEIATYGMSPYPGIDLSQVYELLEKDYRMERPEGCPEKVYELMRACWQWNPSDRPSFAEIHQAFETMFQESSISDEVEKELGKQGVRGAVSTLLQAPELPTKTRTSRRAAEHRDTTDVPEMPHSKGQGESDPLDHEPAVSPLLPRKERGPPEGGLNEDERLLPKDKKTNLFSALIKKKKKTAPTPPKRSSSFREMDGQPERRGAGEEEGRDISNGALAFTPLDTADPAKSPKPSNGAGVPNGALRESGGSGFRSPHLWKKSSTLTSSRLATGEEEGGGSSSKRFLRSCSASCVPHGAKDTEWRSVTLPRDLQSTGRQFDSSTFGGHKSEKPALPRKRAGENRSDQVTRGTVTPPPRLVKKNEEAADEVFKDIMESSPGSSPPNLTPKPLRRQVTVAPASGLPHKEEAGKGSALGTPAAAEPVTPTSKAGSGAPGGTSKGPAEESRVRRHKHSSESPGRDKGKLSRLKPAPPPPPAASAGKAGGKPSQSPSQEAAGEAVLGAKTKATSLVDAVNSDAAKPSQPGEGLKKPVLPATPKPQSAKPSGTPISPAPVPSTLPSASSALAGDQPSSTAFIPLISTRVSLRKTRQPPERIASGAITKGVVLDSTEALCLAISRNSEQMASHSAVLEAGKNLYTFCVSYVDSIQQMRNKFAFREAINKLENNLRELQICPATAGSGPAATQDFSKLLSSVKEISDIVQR
Description: as §1, §2, §3

IKKα (h) = biological target: T6, IKKα (h) (Homo sapiens, UniProt O15111)
T6 construct: purchased Millipore
T6 sequence (O15111 1-745): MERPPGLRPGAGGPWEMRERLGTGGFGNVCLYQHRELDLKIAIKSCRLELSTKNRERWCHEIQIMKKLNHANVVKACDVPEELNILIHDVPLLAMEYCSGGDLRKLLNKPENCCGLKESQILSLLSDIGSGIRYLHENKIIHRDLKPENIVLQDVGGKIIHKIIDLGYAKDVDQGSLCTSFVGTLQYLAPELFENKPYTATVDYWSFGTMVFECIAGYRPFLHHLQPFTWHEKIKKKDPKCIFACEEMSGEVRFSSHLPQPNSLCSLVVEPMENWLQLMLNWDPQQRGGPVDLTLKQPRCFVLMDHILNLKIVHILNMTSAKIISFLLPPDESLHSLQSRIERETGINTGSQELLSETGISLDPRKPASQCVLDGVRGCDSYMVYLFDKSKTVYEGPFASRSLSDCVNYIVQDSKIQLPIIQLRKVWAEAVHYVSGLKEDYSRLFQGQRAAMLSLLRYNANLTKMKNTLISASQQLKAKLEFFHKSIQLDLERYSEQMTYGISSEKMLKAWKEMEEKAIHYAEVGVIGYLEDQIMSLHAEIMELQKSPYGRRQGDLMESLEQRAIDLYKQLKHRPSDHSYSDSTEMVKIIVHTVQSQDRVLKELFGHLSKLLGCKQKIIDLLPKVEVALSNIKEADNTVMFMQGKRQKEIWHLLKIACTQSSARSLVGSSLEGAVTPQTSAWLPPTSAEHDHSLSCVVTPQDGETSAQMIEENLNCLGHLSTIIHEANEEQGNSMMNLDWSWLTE
Description: as §1, §2, §3

| Sequence | % activity (GSK3β (h)) [%] | % activity (Met(Y1248C) (h)) [%] | % activity (FAK (h)) [%] | % activity (PhKγ2 (h)) [%] | % activity (SRPK1 (h)) [%] | % activity (ALK4 (h)) [%] | % activity (Ron (h)) [%] | % activity (Lck (h) activated) [%] | % activity (IRAK1 (h)) [%] | % activity (SAPK2a(T106M) (h)) [%] | % activity (CDK1/cyclinB (h)) [%] | % activity (Abl (h)) [%] | % activity (IKKα (h)) [%] |
| --- | --- | --- | --- | --- | --- | --- | --- | --- | --- | --- | --- | --- | --- |
| YARAAARQARAKALNRQLGVA (Mammalian) [MMI-0200] | 132 | 141 | 110 | 86 | 93 | 152 | 120 | 90 | 101 | 100 | – | – | – |
| HRRIKAWLKKIKALARQLGVAA (Mammalian) [MMI-0500] | 238 | 73 | 94 | 16 | 80 | 81 | 46 | 76 | 5 | 32 | 57 | 16 | 50 |
| FAKLAARLYRKALARQLGVAA [MMI-0300] | 205 | 84 | – | 46 | 90 | 140 | 93 | 243 | 95 | 97 | 73 | 69 | 93 |
| KAFAKLAARLYRKALARQLGVAA [MMI-0400] | 202 | 36 | 96 | 38 | 96 | 130 | 79 | 216 | 93 | 99 | 74 | 84 | 87 |
